The nature of the series: protein stability index of a GFP-peptide fusion (GPS, HEK-293T) (PSI 1-6); higher = more stable. Particulars: c terminus: a fixed tail appended.

± gives the standard deviation.
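Further: 24-mer peptide tiles fused after GFP, lentivirally expressed, FACS-sorted into six equal bins by GFP/DsRed ratio, decoded by Illumina sequencing, PSI is the read-weighted mean bin number.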

QKSVTRSCLLEEEEESGEEAAEAM [POP5] displayed a protein stability index (treatment: DMSO) of 5.37 ± 0.42 and a protein stability index (treatment: MLN4924 1 uM, 8 h) of 5.47 ± 0.27.
Regarding LHTANLGDSGFLVVRGGEVVHRSD [PPTC7], the protein stability index reads like this: (treatment: DMSO) 3.62 ± 0.11; (treatment: MLN4924 1 uM, 8 h) 3.76 ± 0.14.
In the same order, the values of HDTEIRKVHMKDVMSALWVSGLDS [GAN] are 2.78 ± 0.29 and 2.75 ± 0.4.
In the same order, the values of NTQTPVQPPPPPPPPPMQPTVPSA [CCDC6] are 5.05 ± 0.48 and 5 ± 0.1.
The corresponding values for RGQARRLAPNFRWAIPNRQINDGM [BEX3] are 3.1 ± 0.24 and 3.03 ± 0.47.
In the case of FKPACMSEIKNLERYMCSRFFIDF [TENT5D], the protein stability index by setting is: (treatment: DMSO) 2.55 ± 0.61; (treatment: MLN4924 1 uM, 8 h) 2.42 ± 0.58.
In the same order, the values of TFQSHEPEFDYLKSLEIEEKINKI [PPP2R2C] are 4.74 ± 0.17 and 4.81 ± 0.31.
In the same order, the values of LRENVPRVIMIVTDGRPQDSVAEV [MATN2] are 3.088 ± 0.005 and 3.09 ± 0.17.
The corresponding values for VNRTTRTNSTPLRAACFDGHLEVV [FEM1A] are 2.9 ± 0.35 and 2.74 ± 0.34.
Regarding LPNHRAAKRLWKVCVEHHTFFRLL [EPB41L3], the protein stability index was found to be 2.42 ± 0.34 (treatment: DMSO) and 2.36 ± 0.13 (treatment: MLN4924 1 uM, 8 h).
The corresponding values for IHTGERPYKCPECGKSFSRSSHLV [ZNF263] are 2.66 ± 0.45 and 3.18 ± 0.55.
In the same order, the values of FLLQNDANPSIRDKEGYNSIHYAA [ANKRD44] are 2.75 ± 0.25 and 2.85 ± 0.32.
The corresponding values for TLSKSEYMVIEEGGMNHSAFPQTP [KCNA3] are 3.43 ± 0.15 and 3.53 ± 0.28.
Consider REAQQYSEALASTRILKHSPESSR [GLIPR2], for which the protein stability index was determined as 4.92 ± 0.27 (treatment: DMSO) and 4.92 ± 0.3 (treatment: MLN4924 1 uM, 8 h).
In the same order, the values of NGRHKIPESQFPEFSTSLFSGSLE [SRPK2] are 3.66 ± 0.22 and 3.8 ± 0.19.
On to PCELPCKEYDVARNTGAYTSSGLA [TEKT4], for which the protein stability index worked out at 4.18 ± 0.19 (treatment: DMSO) and 4.23 ± 0.13 (treatment: MLN4924 1 uM, 8 h).
Consider RAPQLHLEYRFYEQLGSGDGIPQV [CSNK1G3], for which the protein stability index turned out to be 3.36 ± 0.21 (treatment: DMSO) and 3.34 ± 0.1 (treatment: MLN4924 1 uM, 8 h).
Consider RDSAYQSITHYRPVSASRSSLDLS [EMD], for which the protein stability index runs as follows: (treatment: DMSO) 3.41 ± 0.18; (treatment: MLN4924 1 uM, 8 h) 3.58 ± 0.22.
The corresponding values for AGADLEHESEGGRTPLMKAARAGH [ANKRD17] are 5.07 ± 0.29 and 4.95 ± 0.26.
In the case of QEVFEPPHYELCTLRGTGATADFA [NETO1], the protein stability index runs as follows: (treatment: DMSO) 3.91 ± 0.28; (treatment: MLN4924 1 uM, 8 h) 3.88 ± 0.26.
The sequence VPSESEPPALQNNLLSPLLTGTES [NFE2L1] returned a protein stability index (treatment: DMSO) of 4.92 ± 0.1 and a protein stability index (treatment: MLN4924 1 uM, 8 h) of 5.07 ± 0.18.
For LLTLRNSAQAPPDSISLHQPCNPP [DMRTC1], the protein stability index (treatment: DMSO) is 3.62 ± 0.14 and the protein stability index (treatment: MLN4924 1 uM, 8 h) worked out at 3.82 ± 0.15.
In the same order, the values of MELKVGDFGLAARLEPLEHRRRTI [PLK2] are 3.23 ± 0.16 and 3.43 ± 0.25.
In the same order, the values of FPTVVWTWWIMFLSTFSVPYFLFQ [SOAT1] are 3.1 ± 0.56 and 2.99 ± 0.45.
In the same order, the values of SWARQESLQERKQALYEYARRRFT [AUP1] are 3.8 ± 0.17 and 3.81 ± 0.12.
IIISEPMGYMLFNERMLESYLHAK [CARM1]: the protein stability index is, setting by setting: (treatment: DMSO) 2.66 ± 0.41; (treatment: MLN4924 1 uM, 8 h) 2.51 ± 0.35.
The corresponding values for NPNSSSGKGSGGNAGSYIPSYTSW [DLX1] are 3.44 ± 0.14 and 3.43 ± 0.4.
In the same order, the values of QPKEKIQAIIESCSRQFPEFQERA [NOL4L] are 3.7 ± 0.36 and 3.85 ± 0.1.
The corresponding values for KVPVITSSKEEQKLIATSNKPAVK [KCTD10] are 4.92 ± 0.27 and 5.29 ± 0.23.
Consider DYLYTKQLSPNLDLDPLELIALAN [RHOBTB1], for which the protein stability index worked out at 2.31 ± 0.28 (treatment: DMSO) and 2.3 ± 0.33 (treatment: MLN4924 1 uM, 8 h).
The corresponding values for ANAQIQILTRSWEEVSTLNAQIPE [CD207] are 3.52 ± 0.18 and 3.53 ± 0.2.
In the case of YSEYPECCVDVKPISQEKIESERA [DUSP5], the protein stability index is, setting by setting: (treatment: DMSO) 4.57 ± 0.39; (treatment: MLN4924 1 uM, 8 h) 4.69 ± 0.66.
The corresponding values for VRTSYQPSSPGRFTKETTQKNFNN [TRIM29] are 3.93 ± 0.15 and 3.88 ± 0.22.
On to EHKSLTGTARYMSINTHLGKEQSR [CSNK1G3], for which the protein stability index reads like this: (treatment: DMSO) 4.02 ± 0.095; (treatment: MLN4924 1 uM, 8 h) 3.82 ± 0.38.
In the same order, the values of SGESGLRRRGSDPASGEVEASQLR [TMEM40] are 5.56 ± 0.11 and 5.51 ± 0.22.
The corresponding values for AVLPTAFRVAKKRAPKVLGTTLVV [GDAP1] are 2.18 ± 0.2 and 2.15 ± 0.2.

(Values after the supplement of paper PMC10567573.)
